# Reference: PMC6378684 (Journal of Molecular Biology, 2019)
# T1: Cut7MD (fission yeast kinesin-5 Cut7 motor domain) (Schizosaccharomyces pombe, UniProt P24339)
# T1 construct: monomeric motor domain, residues 67-432, lacks N-terminal extension; His6 tag removed by TEV; expressed in E. coli BL21*(DE3)
# T1 sequence (P24339 67-432): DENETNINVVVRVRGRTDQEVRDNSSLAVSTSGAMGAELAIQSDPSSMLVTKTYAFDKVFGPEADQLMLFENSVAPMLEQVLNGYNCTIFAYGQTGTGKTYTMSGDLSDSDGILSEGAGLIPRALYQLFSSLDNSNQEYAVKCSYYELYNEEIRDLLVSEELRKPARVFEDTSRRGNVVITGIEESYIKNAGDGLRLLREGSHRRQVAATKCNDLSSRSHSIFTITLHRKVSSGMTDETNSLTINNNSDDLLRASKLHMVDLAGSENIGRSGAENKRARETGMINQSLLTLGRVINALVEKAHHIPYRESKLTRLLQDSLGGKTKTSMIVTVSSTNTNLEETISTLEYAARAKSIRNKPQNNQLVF
# Columns and labels:
# [1] = biological target: T1, Cut7MD (fission yeast kinesin-5 Cut7 motor domain); test: cryo-EM structure, […] Å; assay type: binding; details: nucleotide pocket, with Mg; bound to S. pombe microtubules
# [2] = biological target: T1, Cut7MD (fission yeast kinesin-5 Cut7 motor domain); test: microtubule-stimulated ATPase, pyruvate kinase / lactate dehydrogenase coupled; assay type: biochemical; details: 5 mM ATP; epothilone-stabilised S. pombe microtubules; 1 mM MgCl2, pH 8.0, 32 °C
# [3] = biological target: T1, Cut7MD (fission yeast kinesin-5 Cut7 motor domain); test: microtubule-stimulated steady-state ATPase, enzyme-coupled; assay type: biochemical; details: 3.8 μM motor; 100 nM mammalian (bovine) microtubules
# [4] = biological target: S. pombe tubulin microtubules (Sp_tub MTs), epothilone-stabilised (S. pombe) (UniProt P04688)
# Chain of S. pombe tubulin microtubules (Sp_tub MTs), epothilone-stabilised (S. pombe) (P04688 whole entry, chain 1 of 2): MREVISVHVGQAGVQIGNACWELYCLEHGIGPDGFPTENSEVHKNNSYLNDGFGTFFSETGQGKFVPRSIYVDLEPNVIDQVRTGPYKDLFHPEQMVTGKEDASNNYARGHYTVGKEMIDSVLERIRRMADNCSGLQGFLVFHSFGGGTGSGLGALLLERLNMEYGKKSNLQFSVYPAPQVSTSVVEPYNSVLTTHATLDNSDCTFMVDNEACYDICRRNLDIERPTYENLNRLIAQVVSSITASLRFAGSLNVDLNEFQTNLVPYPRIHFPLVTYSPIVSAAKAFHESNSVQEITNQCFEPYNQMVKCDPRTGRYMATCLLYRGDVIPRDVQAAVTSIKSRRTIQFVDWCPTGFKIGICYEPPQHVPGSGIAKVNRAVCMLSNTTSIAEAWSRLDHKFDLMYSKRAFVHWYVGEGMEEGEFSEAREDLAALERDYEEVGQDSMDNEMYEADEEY
# Chain of S. pombe tubulin microtubules (Sp_tub MTs), epothilone-stabilised (S. pombe) (P05219 whole entry, chain 2 of 2, further chain): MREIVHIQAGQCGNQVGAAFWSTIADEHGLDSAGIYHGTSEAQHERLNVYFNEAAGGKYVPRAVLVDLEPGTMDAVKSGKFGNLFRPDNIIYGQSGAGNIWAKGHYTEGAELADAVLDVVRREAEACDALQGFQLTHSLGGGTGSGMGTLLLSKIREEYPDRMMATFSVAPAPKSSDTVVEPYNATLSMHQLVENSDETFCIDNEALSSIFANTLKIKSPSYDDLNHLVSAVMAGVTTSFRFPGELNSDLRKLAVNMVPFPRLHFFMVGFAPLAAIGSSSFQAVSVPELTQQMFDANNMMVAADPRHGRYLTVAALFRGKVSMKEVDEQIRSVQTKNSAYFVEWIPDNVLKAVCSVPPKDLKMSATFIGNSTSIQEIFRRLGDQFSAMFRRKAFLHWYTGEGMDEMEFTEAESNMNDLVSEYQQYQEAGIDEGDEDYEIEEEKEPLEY
# [5] = biological target: Mammalian brain tubulin microtubules (Mam_tub MTs), paclitaxel-stabilised (bovine), Q6B856
# Chain of Mammalian brain tubulin microtubules (Mam_tub MTs), paclitaxel-stabilised (bovine), Q6B856 (Q6B856 whole entry, looked up): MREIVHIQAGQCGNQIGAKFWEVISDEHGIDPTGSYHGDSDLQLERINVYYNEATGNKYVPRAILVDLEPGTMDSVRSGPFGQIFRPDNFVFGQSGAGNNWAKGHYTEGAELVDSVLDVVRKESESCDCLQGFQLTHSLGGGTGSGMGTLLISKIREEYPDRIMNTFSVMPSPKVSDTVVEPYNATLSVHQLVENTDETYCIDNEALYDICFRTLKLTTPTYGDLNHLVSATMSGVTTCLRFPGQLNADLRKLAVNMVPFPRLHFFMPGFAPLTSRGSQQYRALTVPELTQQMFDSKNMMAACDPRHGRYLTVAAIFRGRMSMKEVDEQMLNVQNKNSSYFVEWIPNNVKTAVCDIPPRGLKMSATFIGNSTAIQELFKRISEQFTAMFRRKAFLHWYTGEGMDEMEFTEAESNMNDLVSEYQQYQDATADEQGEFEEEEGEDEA
molecule,measurement,setting,value
"Nc1ncnc2c1ncn2[C@@H]1O[C@H](COP(=O)(O)OP(=O)(O)NP(=O)(O)O)[C@@H](O)[C@H]1O [AMPPNP, adenosine 5′-(β,γ-imido)triphosphate]","cryo-EM structure, 4.5 Å",[1],strong density in the nucleotide binding pocket corresponding to bound Mg-AMPPNP
Nc1ncnc2c1ncn2[C@@H]1O[C@H](COP(=O)(O)OP(=O)(O)OP(=O)(O)O)[C@@H](O)[C@H]1O [ATP],"microtubule-stimulated ATPase, pyruvate kinase / lactate dehydrogenase coupled",[2],we measured the steady-state ATPase activity of Cut7MD on Sp_tub MTs and Mam_tub MTs
"N[C@@H](CSC(c1ccccc1)(c1ccccc1)c1ccccc1)C(=O)O [STLC, (+)-S-trityl-L-cysteine]",% of their uninhibited rates at 2 μM and 20 μM,[3],Cut7MD is not detectably inhibited by STLC
"Cut7 motor domain (Cut7MD), residues 67–432 of the fission yeast kinesin-5 Cut7 (from UniProt P24339 67-432) (domain or fragment)",K0.5MT of the MT-stimulated steady-state ATPase of Cut7MD (Hanes–Woolf plot),[4],13.4 nM
same,K0.5MT of the MT-stimulated steady-state ATPase of Cut7MD (Michaelis–Menten fit),[4],13.9 nM
same,Vmax of the MT-stimulated steady-state ATPase of Cut7MD (Hanes–Woolf plot),[4],1.17 ATP/s
same,Vmax of the MT-stimulated steady-state ATPase of Cut7MD (Michaelis–Menten fit),[4],1.14 ATP/s
"Cut7 motor domain (Cut7MD), residues 67–432 of the fission yeast kinesin-5 Cut7, P24339 67-432 (domain or fragment) DENETNINVVVRVRGRTDQEVRDNSSLAVSTSGAMGAELAIQSDPSSMLVTKTYAFDKVFGPEADQLMLFENSVAPMLEQVLNGYNCTIFAYGQTGTGKTYTMSGDLSDSDGILSEGAGLIPRALYQLFSSLDNSNQEYAVKCSYYELYNEEIRDLLVSEELRKPARVFEDTSRRGNVVITGIEESYIKNAGDGLRLLREGSHRRQVAATKCNDLSSRSHSIFTITLHRKVSSGMTDETNSLTINNNSDDLLRASKLHMVDLAGSENIGRSGAENKRARETGMINQSLLTLGRVINALVEKAHHIPYRESKLTRLLQDSLGGKTKTSMIVTVSSTNTNLEETISTLEYAARAKSIRNKPQNNQLVF",K0.5MT of the MT-stimulated steady-state ATPase of Cut7MD (Hanes–Woolf plot),[5],14.3 nM
same,K0.5MT of the MT-stimulated steady-state ATPase of Cut7MD (Michaelis–Menten fit),[5],19.9 nM
same,Vmax of the MT-stimulated steady-state ATPase of Cut7MD (Hanes–Woolf plot),[5],1.19 ATP/s
same,Vmax of the MT-stimulated steady-state ATPase of Cut7MD (Michaelis–Menten fit),[5],1.25 ATP/s
